Earlier results, collected in article PMC4692369.

Molecular target: Tyr57 (UniProt position 57, QIAAFYRQGLG)
Assay: UV-vis
Conditions: apo enzyme

Substance: Ketosteroid isomerase D40N (earlier construct without LVPR) (Pseudomonas putida; D40N)
- pKa: 6.3
